Test results from doi:10.1101/2025.03.06.641832 (bioRxiv, 2025).

Target: the molecule itself
Assay: SEC

B1: recombinant WT influenza A NP (NΔ7NP, C-terminal His tag) (natural protein)
chain: RSYEQMETDGERQNATEIRASVGKMIGGIGRFYIQMCTELKLSDYEGRLIQNSLTIERMVLSAFDERRNKYLEEHPSAGKDPKKTGGPIYRRVDGKWMRELILYDKEEIRRIWRQANNGDDATAGLTHMMIWHSNLNDATYQRTRALVRTGMDPRMCSLMQGSTLPRRSGAAGAAVKGVGTMVMELIRMIKRGINDRNFWRGENGRRTRIAYERMCNILKGKFQTAAQRAMVDQVRESRNPGNAEFEDLIFLARSALILRGSVAHKSCLPACVYGPAVASGYDFEREGYSLVGIDPFRLLQNSQVYSLIRPNENPAHKSQLVWMACHSAAFEDLRVSSFIRGTKVVPRGKLSTRGVQIASNENMETMESSTLELRSRYWAIRTRSGGNTNQQRASSGQISIQPTFSVQRNLPFDRPTIMAAFTGNTEGRTSDMRTEIIRLMESARPEDVSFQGRGVFELSDEKAASPIVPSFDMSNEGSYFFGDNAEEYDN
binding result: binds
